One block for each molecule: values may come before it.
Legend:
[1] = target: Myc-PK-SV40NLS (not stated | SV40); assay: SEC
Myc-PK-TprNLS = assay: SEC
GST-SV40NLS (SV40) = assay: ELISA
[2] = target: Recombinant KPNA2/Importin-β (UniProt P52292;Q14974); assay: ELISA
Sequence of Recombinant KPNA2/Importin-β (UniProt P52292;Q14974) (Q14974 whole entry, one chain of several): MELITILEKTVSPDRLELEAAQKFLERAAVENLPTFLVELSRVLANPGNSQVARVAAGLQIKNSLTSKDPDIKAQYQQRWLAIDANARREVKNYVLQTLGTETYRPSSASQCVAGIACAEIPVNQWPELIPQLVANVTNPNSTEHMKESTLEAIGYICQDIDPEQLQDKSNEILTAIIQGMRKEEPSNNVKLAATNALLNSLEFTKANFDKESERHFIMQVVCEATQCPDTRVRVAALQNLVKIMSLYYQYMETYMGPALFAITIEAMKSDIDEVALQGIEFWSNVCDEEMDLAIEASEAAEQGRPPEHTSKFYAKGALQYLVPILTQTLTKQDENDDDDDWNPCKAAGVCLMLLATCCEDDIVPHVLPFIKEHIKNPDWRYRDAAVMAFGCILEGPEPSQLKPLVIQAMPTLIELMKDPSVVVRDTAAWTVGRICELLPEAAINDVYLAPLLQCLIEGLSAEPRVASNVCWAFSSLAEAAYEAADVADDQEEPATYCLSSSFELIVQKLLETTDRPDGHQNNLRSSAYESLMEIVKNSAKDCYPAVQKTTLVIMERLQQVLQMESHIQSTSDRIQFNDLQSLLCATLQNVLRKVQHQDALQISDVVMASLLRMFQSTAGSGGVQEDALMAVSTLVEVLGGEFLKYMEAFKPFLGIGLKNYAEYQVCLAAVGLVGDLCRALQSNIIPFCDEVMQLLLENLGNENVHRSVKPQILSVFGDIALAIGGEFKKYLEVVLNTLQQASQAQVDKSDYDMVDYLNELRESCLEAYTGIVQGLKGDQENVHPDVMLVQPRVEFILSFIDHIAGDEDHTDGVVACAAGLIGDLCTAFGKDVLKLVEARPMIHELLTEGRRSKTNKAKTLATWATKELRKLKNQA

Molecule: Myc-PK-SV40NLS
stoichiometry N [1]: 4

stoichiometry N (Myc-PK-TprNLS): 4
Molecule: Myc-PK-TprNLS

Molecule: Recombinant KPNA2/Importin-β (from UniProt P52292;Q14974) (complex)
Kd (GST-SV40NLS (SV40)): 10.5 nM

Kd [2]: 3.2 nM
B1: GST-TprNLS (domain or fragment)
chain: STAVFGTVSATPSSSLPKRTREEEEDSTIEASDQVSDDTVEMPLPKKLKSVTPVGT
